In this assay the target is GST affinity tag. The assay can be described thus: SEC. (SEC sorts molecules by how far they enter the pores of the column.)

GST affinity tag, sequence (P08515 2-218): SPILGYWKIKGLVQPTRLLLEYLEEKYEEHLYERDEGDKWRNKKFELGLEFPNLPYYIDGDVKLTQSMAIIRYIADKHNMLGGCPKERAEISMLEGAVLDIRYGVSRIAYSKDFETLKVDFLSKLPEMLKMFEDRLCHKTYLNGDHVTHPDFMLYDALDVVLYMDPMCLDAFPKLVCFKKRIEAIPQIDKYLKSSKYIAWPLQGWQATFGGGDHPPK

A word on the stoichiometry N: it is a count of units in the complex or per binding partner. GST affinity tag returned a stoichiometry N of 2.

The values above are taken from article doi:10.1101/2021.11.30.470528.
